Test system: U87 human glioblastoma cells
Assay: [125I]-Angiopep-2 or [125I]-ANG1005 uptake assay in U87 cells (LRP1-mediated endocytosis)
Format: cell-based
Conditions: unlabelled Angiopep-2 50 μM or preincubated RAP 1 μM, percentage of control, quadruplicate
Description: In brief, beads were washed twice with 3 ml of PBS on a Whatman filter and resuspended in 60 μl of PBS. Na^125I (1 mCi) from GE Healthcare (Baie d’Urfé, QC, Canada) was added to the bead suspension for 5 min at room temperature. Iodination was initiated by adding 100 μg of peptide (80–100 μl) diluted in 0.1 M phosphate buffer solution, pH 6.5.
In-vitro silencing of LRP1 was carried out by standard methodologies ([Song et al, 2009]). The sequences of oligonucleotides were […]tt (sense) and […]tt (antisense). Human U87 glioblastoma cells were grown to 50% confluence and were transfected with LRP1 silencing RNA (siRNA) using Lipofectamine 2000 (Life Technologies Corporation, Carlsbad, CA, USA) according to the manufacturer's specifications. After 48 h of transfection, cells were used for subsequent assays. Expression of proteins was assessed by western blot analysis.
Cells were incubated in medium in which the sodium bicarbonate had been replaced with Ringer/HEPES buffer (150 mM NaCl, 5.2 mM KCl, 2.2. mM CaCl2, 0.2 mM MgCl2·6H2O, 6 mM NaHCO3, 2.8 mM glucose, and 5 mM HEPES). […]
Cells were seeded in a 24-well plate (5 × 10^4 cells per well) in appropriate media and fed for 3 days. […] Results were quantified with a Wizard 1470 Gamma counter (Perkin-Elmer, Woodbridge, ON, Canada). […]

B1: RAP: receptor-associated protein, a known LRP1 ligand that competitively inhibits uptake of Angiopep-2 (protein, UniProt P30533 35-357, looked up)
Alpha-2-macroglobulin …: YSREKNQPKPSPKRESGEEFRMEKLNQLWEKAQRLHLPPVRLAELHADLKIQERDELAWKKLKLDGLDEDGEKEARLIRNLNVILAKYGLDGKKDARQVTSNSLSGTQEDGLDDPRLEKLWHKAKTSGKFSGEELDKLWREFLHHKEKVHEYNVLLETLSRTEEIHENVISPSDLSDIKGSVLHSRHTELKEKLRSINQGLDRLRRVSHQGYSTEAEFEEPRVIDLWDLAQSANLTDKELEAFREELKHFEAKIEKHNHYQKQLEIAHEKLRHAESVGDGERVSRSREKHALLEGRTKELGYTVKKHLQDLSGRISRARHNEL
effect of unlabelled competitor on uptake of [125I]-Angiopep-2 (500 nM): inhibited

From publication PMC3242593, “Influence of glioma tumour microenvironment on the transport of ANG1005 via low-density lipoprotein receptor-related protein 1” (British Journal of Cancer, 2011)
